Measurements: the nanobody polyreactivity screen of Harvey et al. (2022)

Assay: yeast display, Sf9 membrane polyspecificity reagent, FACS + sequencing; frameworks hold sequencing errors
How it was run: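 A synthetic nanobody library was expressed on Saccharomyces cerevisiae BJ5465 by galactose induction for 36–48 hours. The library was stained for 1 hour at 4 °C with 10% biotinylated, detergent-solubilized Sf9 membrane reagent and enriched with streptavidin microbeads before FACS. Low and high (top ~1%) gates were set on anti-HA fluorescence for expression and streptavidin fluorescence for reagent binding, and each polyreactivity label reflects the gate of origin.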

Sequence | polyreactivity (PSR sort gate)
QVQLVESGGGLVQAGGSLRLSCAASGRIFRWYAMGWYRQAPGKERELVAAISYSGGSTYYADSVKGRFTISRDNAKNTVYLQMNSLKPEDTAVYYCAAATYYKFDYWGQGTQVTVSW | high polyreactivity
QVQLVESGGGLVQAGGSLRLSCAASGRIFRWYAMGWYRQAPGKERELVAGINYGGGRTYYADSVKGRFTISRDNAKNTVYLQMNSLNPEDTAVYYCAAGISGHYYWGQGTQVTVSS | high polyreactivity
QVQLVESGGGLVQAGGSLRLSCAASGRIFRWYAMGWYRQAPGKERELVATISSSGRTNYADSVKGRFTISRDNAKNTVYLQMNSLKPEETAVYYCNADGGDWFGYVGMDYWGQGTQVTVSS | high polyreactivity
QVQLVESGGGLVQAGGSLRLSCAASGRIFRYNAMGWYRQAPGKEREFVAAITSSGAGTHYADSVKGRFTISRDNAKNTVYLQMNSLKPEDTAVYYCNARGYYSKNSYDYYTGDYWGQGTQVTVSS | high polyreactivity
QVQLVESGGGLVQAGGSLRLSCAASGRIFRYNAMGWYRQAPGKERELVAAISSVGSTNYADSVKGRFTISRDNAKNTVYLQMNSLKPEDTAVYYCNAVVRSYVKTYRYYKVDYWGQGTQVTVSS | high polyreactivity
QVQLVESGGGLVQAGGSLRLSCAASGRIFRYNVMGWYRQPPGKERELVAAIRWSGGSTYYADSVKGRFTISRDNAKNTVYLQMNSLKPEDTAVYYCNTVGRWRGYDYWGQGTQVTVSS | high polyreactivity
QVQLVESGGGLVQAGGSLRLSCAASGRIFRYYAMGWSRQAPGKERELVAAISSSGGSTYYADSVKGRFTISRDNAKNTVYLQMNSLKPEDTAVYYCAGVFRLGVGYEYWGQGTQVTVSS | high polyreactivity
QVQLVESGGGLVQAGGSLRLSCAASGRIFRYYAMGWYRQAPGKERELDAAISRSGGSTYYADSVKGRFTISRDNAKNTVYLQMNSLKPEDTAVYYCAARVYRYGAMDYWGQGTQVTVSS | high polyreactivity
QVQLVESGGGLVQAGGSLRLSCAASGRIFRYYAMGWYRQAPGKERELVAAISSGGRTYYADSVKGRFPISRDNEKNTVYLQMNSLKPEDTAVYYCNTYTYAGYNYWGQGTQVTVSS | high polyreactivity
QVQLVESGGGLVQAGGSLRLSCAASGRIFRYYAMGWYRQAPGKERELVAAISSGVGNTYYADSVKGRFTISRDNAKNTVYVQMNSLKPEDTAVFYCKAKWRKFGTVRYDYWGQGTQVTVSS | high polyreactivity
QVQLVESGGGLVQAGGSLRLSCAASGRIFRYYAMGWYRQAPGKERELVAAISSSGGSTYYADSVKGRFTISRDNAKNTVYLQMNSLKPEDTAVYYCNTVGSVGKKRDYWGQGTQVTVSS | high polyreactivity
QVQLVESGGGLVQAGGSLRLSCAASGRIFRYYAMGWYRQAPGKERELVAAITRGGSTNYADSVKGRFTISRDNAKNTVYLQMNSLIPEDTAVYYCNKYPYFVYGDYGYWGQGTQVTVSS | high polyreactivity
QVQLVESGGGLVQAGGSLRLSCAASGRIFRYYAMGWYRQAPGKERELVAAITWSGGSTYYADSVKGRFTISRDNAKNTVYLQMNSLKPEDTAVYYCNAKSYQPFHGDYWGQGTQVTVSS | low polyreactivity
QVQLVESGGGLVQAGGSLRLSCAASGRIFRYYAMGWYRQAPGKERELVADIWSDGSTYYADSVKGRFTISRDNAKNTVYLQMNSLKPEDTAVYYCNAARTYYWYSAKFDYWGQGTQVTVSS | high polyreactivity
QVQLVESGGGLVQAGGSLRLSCAASGRIFRYYAMGWYRQAPGKERELVATISGRGGSTYYADSVKGRFTISRDNAKNTVYREMNSLKPEDTAVYYCYTVSTRYIYDYWGQGTQVTVSS | high polyreactivity
QVQLVESGGGLVQAGGSLRLSCAASGRIFRYYAMGWYSQAPGQDRELVAAISWSGGSTYYADSVKGRFTISRDKAKNTVYLQMHSLKPEDTAVYYCNKVPLGLEGDYWGQGTQVTVSS | high polyreactivity
QVQLVESGGGLVQAGGSLRLSCAASGRIFRYYDMGWYRQAPGKERELVAAITSDGSTKDADSVKGRFTISRDNAKNTVYLQMNSLKQEDTAVYYCNAEVLPTWYSPQLDYWGQGTQVTVSS | low polyreactivity
QVQLVESGGGLVQAGGSLRLSCAASGRIFRYYTMGWYRQAPGKERELVAAITARGTRTYYADSVKGRFTISRDNAKNTVYLQMNSLKPEETSVYYCAADRYIYFAPSMDYWGQGTQVTVSS | high polyreactivity
QVQLVESGGGLVQAGGSLRLSCAASGRIFRYYTRGWYRQAPGKERELVAAISSSGGRTYYADSVKGRFTISRDYANNTVYLQMNSLKPEDTAVYYCNTDGPTWYPTYDYWGQGTQVTVSS | high polyreactivity
QVQLVESGGGLVQAGGSLRLSCAASGRIFRYYVMGWNRQAPGKERELVATITSGGSTNYADSVKGRFTISRDNAKNTVYLQMNSLKPEDTAVYYCAAEKVSGQGEMDYWGQGTQVTVSS | low polyreactivity
QVQLVESGGGLVQAGGSLRLSCAASGRIFRYYVMGWYRQAPGKERELVATITSGGSTNYADSVKGRFTISRDNAKNTVYLQMYSLKPEDTAVYYCARGTSTCTYYWYGYWGQGTQVTVSS | low polyreactivity

Sequence | polyreactivity (PSR sort gate)
QVQLVESGGGLVQAGGSLRLSCAASGRIFSAYAMGWFRQAPGKERELLAAISKRGGRTYYADSVKGRFTISRDNATNTVYLQTNSLKPEDTSVYYCNKRYLDGHDLDYCGQGTQVTVSS | high polyreactivity
QVQLVESGGGLVQAGGSLRLSCAASGRIFSDYAMGRYRQAPGKDRELVATITTGDSTNYADSVKGRFTISRDNAKNTVYLQMNSLKPEDTAVYYCNADRFADYDYWGQGTQVTVSS | low polyreactivity
QVQLVESGGGLVQAGGSLRLSCAASGRIFSFNAMGWYRQAPGKERELVASGGSTYADSVKGRFTISRDNAKNTVYLQMNSLKPEDTAVYYCAADPFYYFPSPFDYWGQGTQVTVSS | low polyreactivity
QVQLVESGGGLVQAGGSLRLSCAASGRIFSFNTMGWYRQAPGKERELVAAITSSSARTYYADSVKGRFTISRDNAKNTVYLQMNSLKPEDTAVYYCAADSTLSRYDYWGQGTQVTVSS | high polyreactivity
QVQLVESGGGLVQAGGSLRLSCAASGRIFSFYAMGWYRQSPGKERELVATISDGGATTYYADSVKGRFTISRDNAKNTVYLQMNSLKPEDTAVYYCAADKRGRPGLPDYDSWGQGTQVTVSS | low polyreactivity
QVQLVESGGGLVQAGGSLRLSCAASGRIFSFYVMGWYRQEPGKERELVAAIDNGGGSTYYADSVKGRFTISRDNAKNTVYLQMNSLKPEDTAVYYCAAEVYDSDSEYYYWGQGTQVTVSS | low polyreactivity
QVQLVESGGGLVQAGGSLRLSCAASGRIFSGNTMGWYRPAPGKERELVAAISKSGGRTYYADSVKGRFPISRVNAKNTVYLQMNSLKPEDTAVYYCNADYRSHYLYDYWGQGTQVTVSS | low polyreactivity
QVQLVESGGGLVQAGGSLRLSCAASGRIFSGNTMGWYRQAPGKERELVAAISKSGGRTYYADSVKGRFTISRDNAKNTVYLQMNSLKPEDTAVYYCNADYRSHYLYDYWGQGTQVTVSS | low polyreactivity
QVQLVESGGGLVQAGGSLRLSCAASGRIFSGNVMGWYRQAPGKERELVAAISRSGGSTYYADSVKGRFTISRDNAKNTVYLQMNSLKPEDTAVYYCADVPTSNSFRSSFYYWGHGTQVTVSS | high polyreactivity
QVQLVESGGGLVQAGGSLRLSCAASGRIFSGYAIGWYRQAPGKERELVAAITSGGSTNYADSVKGRFTISRDNAKNTVYLQMNSLKPEDTAVYYCAADYREVSTTAYYYWGQGTQVTVSS | low polyreactivity
QVQLVESGGGLVQAGGSLRLSCAASGRIFSGYAMGWYRQAPGKERELVAAISQRGGSTTYADSVKGRFTISRDNAKKTVDLQMNSLKPEDTAVYDCAKRYTYPSGYDYWGQGTQVTVSS | low polyreactivity
QVQLVESGGGLVQAGGSLRLSCAASGRIFSGYVMGWYRQAPGKERELVAAISRSGGSTYYADSVKGRFTISRDNAKNTVYLQMNSLKPEDTAVYYCNAYYRYFRSIYDSWGQGTQVTVSS | high polyreactivity
QVQLVESGGGLVQAGGSLRLSCAASGRIFSGYVMGWYRQAPGKERELVAVISRSGGSTYYADSVKGRFTISRDNAKNTVYLLMNSLKPEDTAVYYCAAKHIDGSRGYVYWGQGTQVTVSS | low polyreactivity
QVQLVESGGGLVQAGGSLRLSCAASGRIFSHKAMGWYRQAPGKERELVAGISSGGGTTYADSVKGRFTISRDNAKNTVYLQMNSLKPEDTAVYYCNKQDQPVGRSGYPYGYDYWGQGTQVTVSS | low polyreactivity
QVQLVESGGGLVQAGGSLRLSCAASGRIFSHYAMGWYRQAPGKERELVAAITSDGSTNYADSVKGRFTISRDNAKNTVYLQMNSLKPEHTAVYYCAKYVHIPYYYYLFGSYDYWGQGTQLTVSS | low polyreactivity
QVQLVESGGGLVQAGGSLRLSCAASGRIFSKNAMGWYRPAPGKERELVAAISSGGSTYDADSVKGRFTISRDNAKNTVYLQMNSLKPEDTAVYYCAARKRGYYWGQGTQVTVSS | high polyreactivity
QVQLVESGGGLVQAGGSLRLSCAASGRIFSKYAMGWYRQAPGKARELVAAISTSTGSTYYADSVKGRFTISRDNAKNTVYLQMNSLKPEDTAVYYCAAVGSRWFSQTWRDYWGQGTQVTVSS | high polyreactivity
QVQLVESGGGLVQAGGSLRLSCAASGRIFSKYAMGWYRQAPGKDRELVAAISWSGGRTYYADSVKGRFTISRDNAKNTVYLQMNSLKPEDAALYYCAASFYTGYDYWGQGTQVTVSS | high polyreactivity
QVQLVESGGGLVQAGGSLRLSCAASGRIFSLNAMGWYRQAPGKERELVAGIRKRGGSTYYADSVKGRFTISRDNAKNTVYLQMNSLKPEDTAVYYCAAQPALTYRFYYWGQGTQVTVSS | high polyreactivity
QVQLVESGGGLVQAGGSLRLSCAASGRIFSLNAMGWYRQAPGKERELVAGIRKRGGSTYYADSVKGRFTISRDNAKNTVYLQMNSLKPEHTAVYYCAAQPALTYRFYYWGQGTQVTVSS | high polyreactivity
